From paper PMC11756378, “Centriolar cap proteins CP110 and CPAP control slow elongation of microtubule plus ends” (The Journal of Cell Biology, 2025)

Key:
[1] = target: CEP97^CP110-GFP-SII (CEP97 residues 1–650 fused to CP110 residues 581–991) (human) (UniProt Q8IW35)
[2] = target: the molecule itself; experiment: single-molecule fluorescence intensity (TIRF microscopy); single molecules immobilised on coverslips in MRB80; intensity compared with GFP (monomers) and GFP-EB3 (dimers)
[3] = target: the molecule itself; experiment: SEC-MALS; 20°C, Superdex S75 10/30 or S200 10/30, 20 mM HEPES pH 7.5, 150 mM NaCl, 2 mM DTT; 15 µl at ∼7 mg/ml; proteins alone or mixed equimolar (also 2:1 and 3:1); homodimer for CP110-CC2
[4] = target: T1, CPAP-CC1 (residues 89–196) (human, UniProt Q9HC77 89-196); experiment: cross-linking; zero-length cross-linking with 60 mM DMTMM, 6 min, 25°C, then mass spectrometry (xQuest); conditions: both partners purified
T1 construct: Calculated mass of the monomer: 12.5 kDa; source: E. coli BL21(DE3), purified (Ni-NTA, tag cleaved with HRV 3C protease, SEC); not shown: thioredoxin, N-terminal, cleaved; His6, N-terminal, cleaved
T1 sequence (looked up): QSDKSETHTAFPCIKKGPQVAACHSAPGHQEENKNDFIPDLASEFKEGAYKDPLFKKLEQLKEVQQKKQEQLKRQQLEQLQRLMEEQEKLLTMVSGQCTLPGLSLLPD

For “CPAP-NMUT-mCh (CPAP 1–607 L149A/K150A, GCN4 leucine zipper, mCherry, SII) (from UniProt Q9HC77 1-607)”, the percentage of time CEP97^CP110-GFP was bound to MT plus ends, 20 nM CEP97^CP110-GFP with 50 nM CPAP-NMUT-mCh [1] was 26%.

Work on “CPAP-NWT-mCh (CPAP 1–607, GCN4 leucine zipper, mCherry, SII) (from UniProt Q9HC77 1-607)” yielded an MT plus-end growth rate with 20 nM CEP97^CP110-GFP and 50 nM CPAP-NWT-mCh (TIRF reconstitution) [1] of 0.05 to 0.1 µm/min and a percentage of time CEP97^CP110 was present at MT plus ends, 20 nM CEP97^CP110-GFP with 50 nM CPAP-NWT-mCh [1] of 69%.

B1: CEP97^CP110-GFP-SII (CEP97 residues 1–650 fused to CP110 residues 581–991) (other, human, UniProt Q8IW35 1-650, looked up)
chain: MAVARVDAALPPGEGSVVNWSGQGLQKLGPNLPCEADIHTLILDKNQIIKLENLEKCKRLIQLSVANNRLVRMMGVAKLTLLRVLNLPHNSIGCVEGLKELVHLEWLNLAGNNLKAMEQINSCTALQHLDLSDNNISQIGDLSKLVSLKTLLLHGNIITSLRMAPAYLPRSLAILSLAENEIRDLNEISFLASLTELEQLSIMNNPCVMATPSIPGFDYRPYIVSWCLNLRVLDGYVISQKESLKAEWLYSQGKGRAYRPGQHIQLVQYLATVCPLTSTLGLQTAEDAKLEKILSKQRFHQRQLMNQSQNEELSPLVPVETRASLIPEHSSPVQDCQISQESEPVIQVNSWVGINSNDDQLFAVKNNFPASVHTTRYSRNDLHLEDIQTDEDKLNCSLLSSESTFMPVASGLSPLSPTVELRLQGINLGLEDDGVADESVKGLESQVLDKEEEQPLWAANENSVQMMRSEINTEVNEKAGLLPCPEPTIISAILKDDNHSLTFFPESTEQKQSDIKKPENTQPENKETISQATSEKLPMILTQRSVALGQDKVALQKLNDAATKLQACWRGFYARNYNPQAKDVRYEIRLRRMQEHIVCLTDEIRRLRKERDEERIKKFVQEEAFRFLWNQVRSLQVWQQTVDQRLSSWHFEKVKRRLDLDIDGLQKENCPYVITSGITEQERQHLPEKRYPKGSGFVNKNKMLGTSSKESEELLKSKMLAFEEMRKRLEEQHAQQLSLLIAEQEREQERLQKEIEEQEKMLKEKKAMTAEASELDINNAVELEWRKISDSSLLETMLSQADSLHTSNSNSSGFTNSAMQYSFVSANEAPFYLWGSSTSGLTKLSVTRPFGRAKTRWSQVFSLEIQAKFNKITAVAKGFLTRRLMQTDKLKQLRQTVKDTMEFIRSFQSEAPLKRGIVSAQDASLQERVLAQLRAALYGIHDIFFVMDAAERMSILHHDREVRKEKMLRQMDKMKSPRVALSAATQKSLDRKKYMKAAEMGMPNKKFLVKQNPSETRVLQPNQGQNAPVHRLLSRQGSICRKNPKKAAKCCDNLRRQHSLG
notes: CEP97, human, residues 1-650; Dimer by single-molecule fluorescence intensity; A linker between the two parts is not described; also called CP110-CEP97 fusion; CEP97^CP110 chimera; source: HEK293T, transfected; purified (StrepTactin) for the in vitro assays; in lysate for the co-immunoprecipitation; not shown: GFP, C-terminal, kept; twin-Strep-tag (SII), C-terminal, kept
In the case of B1, the “stoichiometry N” value [2] is reported as 2.

B2: CP110-CC2 (residues 635–717) (domain or fragment, human, UniProt O43303-2 635-717, looked up)
chain: GTSSKESEELLKSKMLAFEEMRKRLEEQHAQQLSLLIAEQEREQERLQKEIEEQEKMLKEKKAMTAEASELDINNAVELEWRK
notes: CP110, human, residues 635-717 (coiled-coil domain CC2); Homodimer alone by SEC-MALS; one chain in the heterodimer with CPAP-CC1; Calculated mass of the monomer: 10.0 kDa; also called CP110 fragment 635–717; source: E. coli BL21(DE3), purified (Ni-NTA, tag cleaved with HRV 3C protease, SEC); not shown: thioredoxin, N-terminal, cleaved; His6, N-terminal, cleaved
For B2, the “stoichiometry N” value [3] was 2 and the binding result [4] was “binds”.
